Sequences and labels used below:
B1: VH:VL chains; a variant is named by its letters at X, in order (parent)
chain 1: QVQLVQSGAEVKKPGASVKVSCKASGYTFTDYXMHWVRQAPGQGLEWMGXVNPNXXXTTYNQKFEGRVTMTTDTSTSTAYMELRSLRSDDTAVYYCARXNXLDXWGQGTTVTVSS
chain 2: DIQMTQSPSSLSASVGDRVTITCSVSSSVSSIYLHWYQQKPGKAPKLLIYSTSNLASGVPSRFSGSGSGTDFTLTISSLQPEDFATYYCQVYSGYPLTFGGGTKVEIK

In the data set the parent is B1. Description: yeast display scFab, FACS + sequencing. The gist of the method:
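Heavy-chain CDR mutant scFab yeast surface library, FACS-sorted after labelling with biotinylated ovalbumin (260 μg/mL in PBSB, 3 h, room temperature) or soluble membrane proteins (130 μg/mL, 20 min on ice), plus anti-Myc. Gates collected the top 25% and bottom 10% of binders, and samples from two replicates were deep sequenced. Non-specific binding call: a sequence was positive if found in ≥3 of 4 positive samples (membrane protein and ovalbumin pooled) and no negatives, and negative by the converse rule.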
Turning to YRGAGAGS, the non-specific binding call is reported as “binds”.
As for YRGAGAGV, the entry is “binds”; as for YRGANSVF, “binds”; as for YRGEGASD, “binds”.
To YRGEGSAS belongs “binds”; to DRGGGDAS, “no binding”.
To YRGAGAWS belongs “binds”; to YRGAGAWA, “binds”; to YRGAGAWV, “binds”.
Take VRGKAFVV: the non-specific binding call is given as “binds”.
In the case of VRERGSWV, the non-specific binding call is “binds”.
VRERGSWD: the non-specific binding call is on record as “binds”.
Turning to YRGGSDGS, the non-specific binding call was “no binding”.
To FRERGSWV belongs “binds”.
As to VRGGDAVA, the non-specific binding call is reported as “no binding”.
For the variant VRGGDAVS, the non-specific binding call is given as “no binding”.
On to VRERGDGV, for which the non-specific binding call is listed as “no binding”.
As for VRERGDGS, the entry is “no binding”.
To YRGGDAAF belongs “no binding”.
To FRGGGSLD belongs “binds”; to YRGEAFLY, “binds”; to VRGGGVGV, “binds”.
Take YRGAGSVD: the non-specific binding call is “binds”.
To VRGKAAVS belongs “binds”; to YRGGASWV, “binds”.
On to FRERGYGA, for which the non-specific binding call is reported as “binds”.
Turning to VRGGGDAA, the non-specific binding call is “no binding”.
As for VRERGAGS, the entry is “binds”.
To YRGGGDGF belongs “no binding”; to VRERGSSF, “no binding”.
To VRERGVGV belongs “binds”; to VRERGAWD, “binds”; to YRERGSAA, “binds”.
Take YRERGSAD: the non-specific binding call was “binds”.
In the case of YRERGSAV, the non-specific binding call is recorded as “binds”.
As for FRGADSGF chain 1 R98K, the entry is “binds”.
To YRGGSAGA belongs “binds”; to YRGGSAGF, “binds”; to YRGESAWV, “binds”.
As to FRGEAVVY, the non-specific binding call is “binds”.
To YRGGGDWV belongs “no binding”.
On to FRGESAAA, for which the non-specific binding call is “binds”.
As for ARGGDDGA, the non-specific binding call is reported as “no binding”.
Consider YRGGAAAA, for which the non-specific binding call is recorded as “binds”.
To YRGGDSAY belongs “no binding”.
Regarding YRGGDSAS, the non-specific binding call is “no binding”.
To VRGGSDVA belongs “no binding”; to VRGGSDVD, “no binding”; to FRGGGSWA, “binds”.
For DRGEGAGD chain 1 G42D, the non-specific binding call was “no binding”.
To VRGGSDGY belongs “no binding”.
YRERGSSF: the non-specific binding call was “binds”.
With YRGEGAVS, the non-specific binding call was “binds”.
As for VRERGASD, the non-specific binding call is reported as “binds”.
Regarding YRGAASAV, the non-specific binding call is “binds”.
With YRGEGAWV, the non-specific binding call was “binds”.
Consider FRGEGAVS, for which the non-specific binding call is “binds”.
To FRGEGAAD belongs “binds”; to YRGEGDAV, “no binding”; to YRGEGDAA, “no binding”.
Turning to YRGGTSVD, the non-specific binding call is “binds”.
In the case of FRGADFGD, the non-specific binding call is “binds”.
In the case of YRGGGSGS, the non-specific binding call was “binds”.
As for VRERGDLV, the non-specific binding call is given as “no binding”.
As for VRERGDAS, the entry is “binds”; as for VRERGDAA, “no binding”; as for YRGGASGA, “binds”.
As for VRGGGDGY, the entry is “no binding”.
For the variant DRGGDDAD, the non-specific binding call was “no binding”.
Take DRGGDDAA: the non-specific binding call is reported as “no binding”.
Consider FRERGALA, for which the non-specific binding call is given as “binds”.
As for YRGADFGF, the entry is “binds”; as for FRGAGSVD, “binds”; as for FRGAGSVA, “binds”.
YRGGTFGF: the non-specific binding call is given as “binds”.
To YRGKAAVD belongs “binds”; to VRGAGAWV, “binds”.
To YRERGAWV belongs “binds”; to YRGAGSGS, “binds”; to YRGAGSGV, “binds”.
To YRGAGSGY belongs “binds”; to YRGAGSGD, “binds”.
YRGGGFAD: the non-specific binding call was “binds”.
As for FRGGGAVS, the entry is “binds”; as for FRGGGAVA, “binds”; as for FRERGSAV, “binds”.
For the variant FRERGSAD, the non-specific binding call is “binds”.
As for FRGESSAD, the entry is “binds”; as for YRGGSSGY, “binds”.
As for FRGGGSSA, the non-specific binding call is on record as “binds”.
In the case of FRERGAAA, the non-specific binding call was “binds”.
As for FRERGDGA, the entry is “binds”; as for YRERSSVA, “binds”; as for DRGGDAVV, “no binding”.
To DRGGDAVA belongs “no binding”.
As for SRGANAWD, the entry is “binds”; as for VRGEGSWD, “binds”; as for FRGGASSD, “binds”.
YRGAASSD: the non-specific binding call is on record as “binds”.
To VRGGDAAS belongs “no binding”; to DRGGDSSS, “no binding”; to DRGGDDGS, “no binding”.
Regarding YRGGGSAA, the non-specific binding call was “binds”.
As for YRGASAAA, the entry is “binds”; as for DRGGGDGV, “no binding”; as for YRGGDYSV, “no binding”.
For the variant YRGAGAAA, the non-specific binding call is given as “binds”.
For YRGAGAAD, the non-specific binding call was “binds”.
As for DRGGSSAA, the entry is “no binding”.
To VRERGSAV belongs “binds”.
To VRERGSAD belongs “binds”.
As to VRERGDWF, the non-specific binding call is reported as “no binding”.
As for VRERGDWV, the entry is “no binding”; as for FRGGSSAA, “binds”; as for FRGGSAGD, “binds”.
To YRGAGALV belongs “binds”.
To FRGGGSAA belongs “binds”.
In the case of DRGGDVSD, the non-specific binding call is on record as “binds”.
As for ARGAGYGS, the non-specific binding call was “binds”.
YRGESAVD: the non-specific binding call was “binds”.
As for FRGGGFVV, the entry is “binds”; as for SRGGGVGY, “binds”; as for VRGGDDVF, “no binding”.

Values taken from the emibetuzumab library of Makowski et al. (2022).
